The results in this text go back to patent US20220010006A1 (BEIJING HANMI PHARMACEUTICAL, published 2022).

Assay [1] deals with transmembrane TNFα on Jurkat/tmTNFα cells. The experiment in a line: cell-based or functional assay.
The next assay has as its target T1, mouse IL-17A (mouse, UniProt Q62386 26-158).
T1 construct: also called recombinant mouse IL-17A
T1 sequence (looked up): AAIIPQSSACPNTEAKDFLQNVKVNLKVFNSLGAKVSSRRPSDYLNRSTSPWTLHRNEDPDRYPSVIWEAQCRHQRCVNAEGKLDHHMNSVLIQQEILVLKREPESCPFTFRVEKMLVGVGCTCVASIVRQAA
The experiment in a line: ELISA, plate-coated antigen 1 µg/mL, anti-human IgG-HRP. The procedure:
(§1) Detailed procedures are as follows: the recombinant mouse TNFα, rat TNFα, mouse IL-17A and rat IL-17A (all purchased from Sino Biological, P. R. China) were coated on wells of a 96-well high-adsorption ELISA plate using a carbonate buffer solution of pH 9.6 at a coating concentration of 1 μg/mL and in a coating amount of 100 μL per well. The coating was performed at 4° C. overnight. The wells were washed with PBST 5 times. The wells were blocked with 300 μL per well of PBST containing 1% BSA, and incubated for 1 hour at 25° C., and washed with PBST 5 times. […] The wells were washed with PBST 5 times. Then, horseradish peroxidase-labeled anti-human IgG antibody (Chemicon, cat #AP 309P) 1:10000 diluted in PBST containing 1% BSA was added in an amount of 100 μL per well, and incubated at 25° C. for 1 hour. The wells were washed with PBST 5 times. The chromogenic substrate TMB was added in an amount of 100 μL per well, and color developed at room temperature for 10 minutes. Color development was terminated by adding 1M H₂SO₄ in an amount of 100 μL per well. The absorbance at 450 nm was read on a microplate reader.

The next assay addresses T2, rat IL-17A (rat, UniProt Q61453 18-150, limits assumed).
T2 construct: also called recombinant rat IL-17A
T2 sequence (looked up): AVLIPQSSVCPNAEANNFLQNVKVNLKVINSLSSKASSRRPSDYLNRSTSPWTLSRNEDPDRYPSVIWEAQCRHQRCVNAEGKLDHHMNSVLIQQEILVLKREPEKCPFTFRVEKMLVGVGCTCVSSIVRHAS
Described as above. The procedure: as §1

For the molecule Humira® (antibody), in assay [1], the Apoptosis ratio (%) of Jurkat/tmTNFα cells, Humira 1 µg/mL turned out to be 29.9% and the Apoptosis ratio (%) of Jurkat/tmTNFα cells, Humira 10 µg/mL is 28.2%.

For Enbrel® (Fc fusion), in assay [1], the Apoptosis ratio (%) of Jurkat/tmTNFα cells, Enbrel 1 µg/mL worked out at 19% and the Apoptosis ratio (%) of Jurkat/tmTNFα cells, Enbrel 10 µg/mL was 21%.

B1: anti-mouse IL-17A monoclonal antibody (1D10 variable regions) (antibody, V domains shown)
VH: QVQLKESGPGLVQPSQTLSLTCTVSGFSLTNYYVHWVRQPPGKGLEWMGGVWNDGDTSYNSVLRSRLSITRDTSKSQVLLKMSSLQTEDTATYYCAREGREGFVGYYVMDAWGPGASVTVSS
VL: DIQMTQSPSFLSASVGERVTLSCKASQNINKYLDWFQQKLGEAPKLLIYNADNLHTGIPSRFSGSGSFSDFILTISSLQPEDDATYFCLQRESWPYTFGAGTKLELK
notes: Parental control of BH1654; variable regions from U.S. Pat. No. 7,846,443, 1D10; also called The anti-mouse IL-17A monoclonal antibody; anti-mouse IL-17A mAb
With B1, the EC50 with mouse IL-17A turned out to be 0.027 nM; with rat IL-17A, 0.032 nM.
